From US20080103095A1 (HEALTH RESEARCH, published 2008)

Target: T1, native hsp110 from murine tumor cells (Colon26 / colon 26, Meth A) and liver (mouse (murine colon 26 tumor), UniProt Q61699 2-858, limits assumed)
T1 construct: Native protein in cell extracts or chromatographic fractions; also called heat shock protein 110
Assay: immunoblot of the purified native hsp110 fraction (ion exchange and size exclusion) from Colon26 cells

T1 sequence (Q61699 2-858 limits assumed): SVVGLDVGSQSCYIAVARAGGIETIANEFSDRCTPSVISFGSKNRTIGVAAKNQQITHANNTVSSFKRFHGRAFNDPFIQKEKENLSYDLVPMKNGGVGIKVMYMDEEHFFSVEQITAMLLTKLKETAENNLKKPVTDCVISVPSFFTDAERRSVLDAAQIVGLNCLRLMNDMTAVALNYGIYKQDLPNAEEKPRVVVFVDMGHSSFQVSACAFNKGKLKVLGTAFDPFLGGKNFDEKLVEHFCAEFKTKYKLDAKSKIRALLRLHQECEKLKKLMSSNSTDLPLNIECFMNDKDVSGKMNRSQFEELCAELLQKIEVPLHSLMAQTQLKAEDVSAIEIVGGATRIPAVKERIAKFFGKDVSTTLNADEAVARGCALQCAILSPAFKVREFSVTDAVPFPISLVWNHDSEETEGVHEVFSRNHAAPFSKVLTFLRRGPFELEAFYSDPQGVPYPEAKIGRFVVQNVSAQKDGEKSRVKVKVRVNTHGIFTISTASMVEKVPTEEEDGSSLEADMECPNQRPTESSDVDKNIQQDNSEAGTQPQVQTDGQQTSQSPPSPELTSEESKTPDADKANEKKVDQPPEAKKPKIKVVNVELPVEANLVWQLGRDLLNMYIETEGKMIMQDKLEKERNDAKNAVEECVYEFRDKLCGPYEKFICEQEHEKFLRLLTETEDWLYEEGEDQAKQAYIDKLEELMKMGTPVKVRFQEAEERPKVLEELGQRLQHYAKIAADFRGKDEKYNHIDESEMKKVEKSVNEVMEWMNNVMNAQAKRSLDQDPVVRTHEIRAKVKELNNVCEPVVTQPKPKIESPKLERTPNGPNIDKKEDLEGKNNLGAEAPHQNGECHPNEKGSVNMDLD

binding result: no binding
B1: T-complex polypeptide1 (TCP-1) in Colon26 cells (other)
chain: not shown
